Assay results published in US20220251191A1 (ARCH ONCOLOGY, published 2022).
Positions count from the first letter of the chain named. Blank lines part the entries; values can stand above or below the binder they belong to.

Tests used:
[1] = molecular target: T1, recombinant biotin tagged IL-7 Receptor-alpha (IL-7Rα) (Acrobiosystems #IL-7-H82F8) (UniProt P16871 21-236, biotin tag (site not stated)); assay: binding analysis with two Kd parameters, in-house against commercially obtained IL-7 (taken to be TR-FRET on IL-7Rα)
T1 construct: Bought reagent; also called IL-7Ra; α receptor
T1 sequence (looked up): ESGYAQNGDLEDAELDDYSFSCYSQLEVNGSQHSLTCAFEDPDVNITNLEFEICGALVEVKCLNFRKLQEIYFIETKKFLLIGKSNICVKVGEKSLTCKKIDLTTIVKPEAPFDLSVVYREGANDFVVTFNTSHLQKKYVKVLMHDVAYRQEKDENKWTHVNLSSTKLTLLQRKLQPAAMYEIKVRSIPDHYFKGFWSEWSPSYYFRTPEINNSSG

[2] = molecular target: T1, recombinant biotin tagged IL-7 …; assay: TR-FRET ligand-receptor binding assay, equilibrium fit
Description: (§1) IL-7 binding affinity was determined by measuring the TR-FRET fluorescence signal at a range of concentrations of recombinant IL-7 and IL-7 Receptor-alpha (IL-7Rα). In a buffer of PBS (pH 7.4)+0.05% BSA and 0.005% Tween-20, make 4×stocks of 160 nM TR-FRET acceptor linked α6-his IgG (Perkin Elmer #TRF0105-M), 80 nM TR-FRET donor linked streptavidin (Perkin Elmer #AD0062), recombinant 6-his tagged IL-7 wildtype or mutant variant (at concentrations up to 160 nM), and recombinant biotin tagged IL-7Rα (Acrobiosystems #IL-7-H82F8) (at concentrations up to 80 nM). For each sample to be tested, 5 μL of the 4× stock of a6-his IgG linked acceptor is mixed with 5 μL of a 4×working stock of IL-7. Separately, for each sample, 5 μL of 4×TR-FRET donor linked to streptavidin is mixed with 5 μL of the 4×working stock of recombinant IL-7Rα linked to biotin. Mixtures were incubated at room temperature for 30 minutes during which the 10 μL of a6-his linked acceptor/IL-7 mix was distributed into indicated wells in 384-well shallow black ProxiPlate (Perkin Elmer #6008260) and kept covered from light. After the 30 min incubation, 10 μL of streptavidin linked donor/IL-7Ra mixture was placed in designated wells containing designated concentration of IL-7 plus acceptor. Plates were immediately spun at 750 rpm for 30 sec and then immediately placed in PHERAstar plate reader (BMG Labtech) to read TR-FRET signal. Continuously over the next 30 minutes, fluorescence for donor signal (337 nm excitation/620 nm emission) and acceptor signal (337 nm excitation/655 nm emission) are read. The TR-FRET binding signal is determined by taking the ratio of acceptor signal over donor signal and multiplying by 10,000. Equilibrium is defined at the time point where the readings plateau before fluorescence activity begins to decay. Equilibrium values are then fit to a standard equilibrium equation assuming single site binding using the graphing program GraFit (Erithacus Software).

[3] = molecular target: T1, recombinant biotin tagged IL-7 …; assay: TR-FRET, Expt. 1
Description: as §1, with “Mixtures were incubated at room temperature for 30 minutes during which the 10 μL of a6-his linked acceptor/IL-7 mix was distributed into indicated wells in 384-well shallow black ProxiPlate (Perkin Elmer #6008260) and kept covered from light. After the 30 min incubation, 10 μL of streptavidin linked donor/IL-7Ra mixture was placed in designated wells containing designated concentration of IL-7 plus acceptor.” left out, “Equilibrium values are then fit to a standard equilibrium equation assuming single site binding using the graphing program GraFit (Erithacus Software).” left out

[4] = molecular target: T1, recombinant biotin tagged IL-7 …; assay: TR-FRET, Expt. 2
Description: as §1, with “Mixtures were incubated at room temperature for 30 minutes during which the 10 μL of a6-his linked acceptor/IL-7 mix was distributed into indicated wells in 384-well shallow black ProxiPlate (Perkin Elmer #6008260) and kept covered from light. After the 30 min incubation, 10 μL of streptavidin linked donor/IL-7Ra mixture was placed in designated wells containing designated concentration of IL-7 plus acceptor.” left out, “Equilibrium values are then fit to a standard equilibrium equation assuming single site binding using the graphing program GraFit (Erithacus Software).” left out

[5] = molecular target: T1, recombinant biotin tagged IL-7 …; assay: TR-FRET, only the α receptor present (FIG. 4)
Description: as §1, with “Mixtures were incubated at room temperature for 30 minutes during which the 10 μL of a6-his linked acceptor/IL-7 mix was distributed into indicated wells in 384-well shallow black ProxiPlate (Perkin Elmer #6008260) and kept covered from light. After the 30 min incubation, 10 μL of streptavidin linked donor/IL-7Ra mixture was placed in designated wells containing designated concentration of IL-7 plus acceptor.” left out, “Equilibrium values are then fit to a standard equilibrium equation assuming single site binding using the graphing program GraFit (Erithacus Software).” left out

[6] = molecular target: T2, IL-7Rα with 20 nM receptor γ (UniProt P16871 21-236; P31785 23-262, biotin tag (site not stated)); assay: TR-FRET; with gamma
T2 chain 1: T1 sequence (looked up)
T2 chain 2: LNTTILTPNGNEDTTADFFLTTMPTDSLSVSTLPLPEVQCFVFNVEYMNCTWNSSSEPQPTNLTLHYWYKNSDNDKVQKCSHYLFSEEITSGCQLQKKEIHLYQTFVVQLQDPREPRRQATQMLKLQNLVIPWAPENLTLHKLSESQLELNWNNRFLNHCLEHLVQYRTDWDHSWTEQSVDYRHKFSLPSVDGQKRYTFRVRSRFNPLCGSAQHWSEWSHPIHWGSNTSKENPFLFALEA

[7] = molecular target: T1, recombinant biotin tagged IL-7 …; assay: TR-FRET, His-tagged IL-7 and biotin IL-7Rα, equilibrium fit (FIG. 3)
Description: as §1, with “Mixtures were incubated at room temperature for 30 minutes during which the 10 μL of a6-his linked acceptor/IL-7 mix was distributed into indicated wells in 384-well shallow black ProxiPlate (Perkin Elmer #6008260) and kept covered from light. After the 30 min incubation, 10 μL of streptavidin linked donor/IL-7Ra mixture was placed in designated wells containing designated concentration of IL-7 plus acceptor.” left out, “Equilibrium values are then fit to a standard equilibrium equation assuming single site binding using the graphing program GraFit (Erithacus Software).” left out

[8] = molecular target: T1, recombinant biotin tagged IL-7 …; assay: TR-FRET, previous analyses
[9] = molecular target: T3, IL-7Rα with 20 nM receptor γ (UniProt P16871 21-236; P31785 23-262, biotin tag (site not stated)); assay: TR-FRET, with 20 nM receptor γ against without (FIG. 5)
T3 construct: Mixture of IL-7Rα and soluble receptor γ in the TR-FRET assay; The fit treated the receptor chains as one combined unit; also called IL-7Ra with the γ subunit; IL-7 with γ
T3 sequence (looked up) 1: T1 sequence (looked up)
T3 sequence (looked up) 2: T2 chain 2
Description: as §1, with “Mixtures were incubated at room temperature for 30 minutes during which the 10 μL of a6-his linked acceptor/IL-7 mix was distributed into indicated wells in 384-well shallow black ProxiPlate (Perkin Elmer #6008260) and kept covered from light. After the 30 min incubation, 10 μL of streptavidin linked donor/IL-7Ra mixture was placed in designated wells containing designated concentration of IL-7 plus acceptor.” left out, “Equilibrium values are then fit to a standard equilibrium equation assuming single site binding using the graphing program GraFit (Erithacus Software).” left out

[10] = molecular target: T1, recombinant biotin tagged IL-7 …; assay: TR-FRET, without receptor γ (FIG. 5)
Description: as §1, with “Mixtures were incubated at room temperature for 30 minutes during which the 10 μL of a6-his linked acceptor/IL-7 mix was distributed into indicated wells in 384-well shallow black ProxiPlate (Perkin Elmer #6008260) and kept covered from light. After the 30 min incubation, 10 μL of streptavidin linked donor/IL-7Ra mixture was placed in designated wells containing designated concentration of IL-7 plus acceptor.” left out, “Equilibrium values are then fit to a standard equilibrium equation assuming single site binding using the graphing program GraFit (Erithacus Software).” left out

[11] = molecular target: T1, recombinant biotin tagged IL-7 …; assay: TR-FRET, earlier analyses

fold higher Kd than in-house IL-7 [1]: ~4 fold | Kd [2]: 21.7 nM
B1: IL-7 WT (commercial-sourced) (ligand)
chain: MDCDIEGKDGKQYESVLMVSIDQLLDSMKEIGSNCLNNEFNFFKRHICDANKEGMFLFRAARKLRQFLKMNSTGDFDLHLLKVSEGTTILLNCTGQVKGRKPAALGEAQPTKSLEENKSLKEQKKLNDLCFLKRLLQEIKTCWNKILMGTKEH
notes: also called commercially obtained IL-7; commercial IL-7

Kd [3]: 14 nM | Kd [4]: 20 nM | Kd [5]: 20.2 nM | Kd [6]: 2.75 nM | Kd [7]: 5.44 nM | Kd [8]: 6 nM | Kd [2]: 17 nM | fold increase in apparent affinity with receptor γ against without [9]: 5 fold | Kd [10]: 12.1 nM | Kd [11]: 6.6 nM
B2: IL-7 WT (in-house with His tag) (ligand)
chain: MDCDIEGKDGKQYESVLMVSIDQLLDSMKEIGSNCLNNEFNFFKRHICDANKEGMFLFRAARKLRQFLKMNSTGDFDLHLLKVSEGTTILLNCTGQVKGRKPAALGEAQPTKSLEENKSLKEQKKLNDLCFLKRLLQEIKTCWNKILMGTKEHENLYFQGHHHHHH
notes: also called IL-7 WT (in-house-His 6); in-house IL-7

Kd [3]: 37 nM | Kd [4]: 72 nM | Kd [5]: 34.8 nM | Kd [2]: 55 nM
B3: IL-7 S1 with C-terminal His-tag (ligand)
chain: B2 chain with K11I
notes: also called IL-7 mutant S1; S1 mutant
